This is an account of results in patent US20200317768A1 (published 2020).

For orientation: Kd means the free concentration of one partner at which half of the binding sites on the other are occupied at equilibrium, for simple one-to-one binding.

Numbering of substitutions follows the chain as printed.

For assay [1], the target named is T1, cynomolgus monkey FcγRIIa2 extracellular domain, His-tagged (cynomolgus monkey).
T1 construct: also called cyno FcγRIIa2; cynoFcgRIIa2
T1 chain: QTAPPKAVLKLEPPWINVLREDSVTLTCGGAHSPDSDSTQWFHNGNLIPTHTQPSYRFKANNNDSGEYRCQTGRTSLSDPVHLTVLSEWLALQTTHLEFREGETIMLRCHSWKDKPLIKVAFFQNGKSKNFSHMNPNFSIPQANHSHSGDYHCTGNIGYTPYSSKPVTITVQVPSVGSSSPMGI
Nature of the assay: SPR, antibody captured, FcgR analyte.

In assay [2] the target is T2, cynomolgus monkey FcγRIIIaS extracellular domain, His-tagged (cynomolgus monkey, UniProt Q8SPW2 21-206 at identity 1.00)).
T2 construct: also called cyno FcγRIIIaS; cynoFcγRIIIaS
T2 chain: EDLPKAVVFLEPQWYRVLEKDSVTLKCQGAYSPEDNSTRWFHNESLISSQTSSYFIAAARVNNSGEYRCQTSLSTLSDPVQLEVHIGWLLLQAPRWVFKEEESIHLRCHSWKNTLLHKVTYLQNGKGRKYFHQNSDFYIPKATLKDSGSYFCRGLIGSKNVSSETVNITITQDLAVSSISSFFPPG
In words: SPR, antibody captured, FcgR analyte. On the technique in general: In SPR one partner is held on a chip, and binding of the other changes the refractive index at the surface.

The target of assay [3] is T3, cynomolgus monkey FcγRIIa1 extracellular domain, His-tagged (cynomolgus monkey).
T3 construct: also called cyno FcγRIIa1; cynoFcgRIIa1
T3 chain: T1 chain with T95P, A121T, K127I, S128A, N130K, N135D, Q142R
In words: SPR, antibody captured, FcgR analyte.

For assay [4], the target named is T4, human FcγRIIb extracellular domain, His-tagged (human, UniProt P31994 43-217).
T4 construct: also called FcgRIIb (human)
T4 sequence: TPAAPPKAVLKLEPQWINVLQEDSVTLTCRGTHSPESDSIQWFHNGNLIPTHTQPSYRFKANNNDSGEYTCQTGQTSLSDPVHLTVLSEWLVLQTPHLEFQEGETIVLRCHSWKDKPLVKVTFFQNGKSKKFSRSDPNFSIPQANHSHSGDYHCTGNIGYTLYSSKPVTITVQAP
Nature of the assay: SPR, antibody captured, FcgR analyte.

The target in assay [5] is T5, cynomolgus monkey FcγRIIb extracellular domain, His-tagged (cynomolgus monkey).
T5 construct: also called cyno FcγRIIb; cynoFcγRIIb
T5 chain: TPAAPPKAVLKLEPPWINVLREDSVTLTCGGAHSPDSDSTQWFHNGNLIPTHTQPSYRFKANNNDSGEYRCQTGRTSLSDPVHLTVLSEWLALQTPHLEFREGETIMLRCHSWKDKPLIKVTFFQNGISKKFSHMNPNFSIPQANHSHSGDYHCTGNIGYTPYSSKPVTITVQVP
In words: SPR, antibody captured, FcgR analyte.

Assay [6] deals with T6, human FcγRIIIaV extracellular domain, His-tagged (human, UniProt P08637 17-208).
T6 construct: also called FcgRIIIaV
T6 sequence (P08637 17-208 F176V): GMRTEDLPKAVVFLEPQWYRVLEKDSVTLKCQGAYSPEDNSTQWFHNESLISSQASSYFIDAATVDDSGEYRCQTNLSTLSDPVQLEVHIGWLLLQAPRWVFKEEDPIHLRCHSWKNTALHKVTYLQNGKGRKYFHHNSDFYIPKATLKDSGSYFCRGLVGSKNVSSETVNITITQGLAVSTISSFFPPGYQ
Nature of the assay: SPR, antibody captured, FcgR analyte.

For assay [7], the target named is T7, human FcγRIIaH extracellular domain, His-tagged (human, UniProt P12318 34-217).
T7 construct: also called human FcγRIIa (type H); FcgRIIaH
T7 sequence: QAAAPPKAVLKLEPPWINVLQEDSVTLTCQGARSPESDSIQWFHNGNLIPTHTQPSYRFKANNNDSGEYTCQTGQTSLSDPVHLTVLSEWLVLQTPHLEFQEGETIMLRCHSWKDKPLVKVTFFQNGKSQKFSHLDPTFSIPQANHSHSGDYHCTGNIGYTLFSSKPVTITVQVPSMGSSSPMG
Nature of the assay: SPR, antibody captured, FcgR analyte.

Assay [8] has as its target T8, human FcγRIIaR extracellular domain, His-tagged (human, UniProt P12318 34-217).
T8 construct: also called human FcγRIIa (type R); FcgRIIaR
T8 chain: T7 sequence with H134R
Nature of the assay: SPR, antibody captured, FcgR analyte.

Assay [9] addresses T4, human FcγRIIb extracellular domain, …. In words: SPR; KD of SG1 / KD of variant.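 Note: relative to parent M103205H795-SG1 carrying the SG1 human heavy chain constant region.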

B1: M103205H795-MY063/M103202L889-SK1 (antibody, human IgG1, kappa)
heavy: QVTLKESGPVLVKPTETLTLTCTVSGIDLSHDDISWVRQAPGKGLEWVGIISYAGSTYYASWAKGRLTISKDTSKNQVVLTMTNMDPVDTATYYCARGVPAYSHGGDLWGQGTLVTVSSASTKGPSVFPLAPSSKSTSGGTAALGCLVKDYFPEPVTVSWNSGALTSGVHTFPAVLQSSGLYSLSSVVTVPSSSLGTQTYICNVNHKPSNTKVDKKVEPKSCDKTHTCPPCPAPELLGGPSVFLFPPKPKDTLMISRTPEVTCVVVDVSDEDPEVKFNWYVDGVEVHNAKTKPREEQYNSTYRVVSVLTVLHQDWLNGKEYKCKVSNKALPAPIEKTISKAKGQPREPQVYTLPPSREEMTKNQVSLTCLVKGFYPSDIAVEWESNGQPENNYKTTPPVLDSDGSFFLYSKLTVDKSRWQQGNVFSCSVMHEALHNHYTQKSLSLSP
light: DIVMTQSPATLSLSPGERATLSCTSSQSVYHANWLSWFQQKPGQPPKLLIYWASTLAYGVPSRFSGSGSGTDFTLTISSLQPEDAATYYCAGGYGGGRYAFGQGTKVEIKRTVAAPSVFIFPPSDEQLKSGTASVVCLLNNFYPREAKVQWKVDNALQSGNSQESVTEQDSKDSTYSLSSTLTLSKADYEKHKVYACEVTHQGLSSPVTKSFNRGEC
notes: Substitution put into M103205H795-SG1
B1: the Kd turned out to be 1500 nM in [1]; 67 nM in [2]; 1400 nM in assay [3]; 660 nM in assay [4]; 340 nM in assay [5]; 160 nM in assay [6]. The Kd was found to be 270 nM in assay [7] and 210 nM in assay [8]. The “KD fold (SG1 = 1)” value in assay [9] was 7 fold.

B2: M103205H795-MY073/M103202L889-SK1 (antibody, human IgG1, kappa)
heavy: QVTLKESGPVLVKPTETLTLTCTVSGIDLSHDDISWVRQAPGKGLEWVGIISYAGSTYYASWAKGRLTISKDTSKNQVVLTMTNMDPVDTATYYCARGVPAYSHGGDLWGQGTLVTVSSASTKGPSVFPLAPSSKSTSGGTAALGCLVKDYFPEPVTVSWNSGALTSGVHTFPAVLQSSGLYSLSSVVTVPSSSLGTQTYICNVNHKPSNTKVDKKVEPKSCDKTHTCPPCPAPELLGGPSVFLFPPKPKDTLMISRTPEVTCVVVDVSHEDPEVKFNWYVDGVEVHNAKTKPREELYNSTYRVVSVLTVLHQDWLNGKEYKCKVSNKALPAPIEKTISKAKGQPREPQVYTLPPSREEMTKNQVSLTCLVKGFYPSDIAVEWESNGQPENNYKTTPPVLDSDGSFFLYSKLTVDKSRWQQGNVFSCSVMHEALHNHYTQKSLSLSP
light: B1 light
notes: as for B1
Take B2: the dissociation constant Kd was 1300 nM in [1]; 170 nM in assay [2]; 1200 nM in assay [3]; 2000 nM in [4]; 670 nM in [5]; 340 nM in assay [6]. The Kd came to 240 nM in assay [7] and 500 nM in assay [8]. Also, the “KD fold (SG1 = 1)” value in [9] was 2.3 fold.

B3: M103205H795-MY196/M103202L889-SK1 (antibody, human IgG1, kappa)
heavy: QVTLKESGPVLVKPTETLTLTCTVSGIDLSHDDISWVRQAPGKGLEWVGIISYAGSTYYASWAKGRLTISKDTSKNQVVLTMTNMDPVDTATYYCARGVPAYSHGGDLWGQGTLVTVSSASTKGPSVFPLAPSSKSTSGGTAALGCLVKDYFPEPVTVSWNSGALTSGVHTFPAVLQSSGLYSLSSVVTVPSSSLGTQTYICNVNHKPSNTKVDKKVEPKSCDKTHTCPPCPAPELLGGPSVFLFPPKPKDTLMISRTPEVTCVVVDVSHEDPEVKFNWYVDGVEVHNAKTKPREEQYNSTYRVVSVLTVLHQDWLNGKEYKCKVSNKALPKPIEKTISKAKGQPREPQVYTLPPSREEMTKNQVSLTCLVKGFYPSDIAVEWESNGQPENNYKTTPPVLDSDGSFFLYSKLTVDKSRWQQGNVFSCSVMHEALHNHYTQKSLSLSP
light: B1 light
notes: as for B1
On to B3, for which the Kd in assay [1] worked out at 3000 nM; in [2], 600 nM; in [3], 2500 nM; in assay [4] it was 6200 nM; in [5], 2400 nM; in [6], 2200 nM. Besides, the Kd in assay [7] was determined as 480 nM; in [8], 1300 nM. For the same molecule, the “KD fold (SG1 = 1)” value in [9] came to 0.7 fold.

B4: M103205H795-MY071/M103202L889-SK1 (antibody, human IgG1, kappa)
heavy: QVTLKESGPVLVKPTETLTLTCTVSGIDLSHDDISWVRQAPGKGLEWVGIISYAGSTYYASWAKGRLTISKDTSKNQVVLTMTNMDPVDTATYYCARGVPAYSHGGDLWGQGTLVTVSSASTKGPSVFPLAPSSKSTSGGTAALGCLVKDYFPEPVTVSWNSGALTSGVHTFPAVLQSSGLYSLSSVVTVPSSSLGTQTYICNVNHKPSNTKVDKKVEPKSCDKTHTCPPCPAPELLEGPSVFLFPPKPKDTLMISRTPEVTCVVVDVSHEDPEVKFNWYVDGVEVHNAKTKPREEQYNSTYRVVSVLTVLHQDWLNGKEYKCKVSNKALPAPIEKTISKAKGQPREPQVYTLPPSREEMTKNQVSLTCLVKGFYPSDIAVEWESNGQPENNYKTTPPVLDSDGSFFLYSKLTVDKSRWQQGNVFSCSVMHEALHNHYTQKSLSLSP
light: B1 light
notes: as for B1
Consider B4, for which the Kd in assay [1] turned out to be 3700 nM; in [2] it was 280 nM; in assay [3], 5000 nM; in assay [4], 8100 nM; in assay [5] it was 2500 nM; in [6], 510 nM. The Kd was determined as 400 nM in assay [7] and 450 nM in [8]. The “KD fold (SG1 = 1)” value in assay [9] worked out at 1.9 fold.

B5: M103205H795-MY065/M103202L889-SK1 (antibody, human IgG1, kappa)
heavy: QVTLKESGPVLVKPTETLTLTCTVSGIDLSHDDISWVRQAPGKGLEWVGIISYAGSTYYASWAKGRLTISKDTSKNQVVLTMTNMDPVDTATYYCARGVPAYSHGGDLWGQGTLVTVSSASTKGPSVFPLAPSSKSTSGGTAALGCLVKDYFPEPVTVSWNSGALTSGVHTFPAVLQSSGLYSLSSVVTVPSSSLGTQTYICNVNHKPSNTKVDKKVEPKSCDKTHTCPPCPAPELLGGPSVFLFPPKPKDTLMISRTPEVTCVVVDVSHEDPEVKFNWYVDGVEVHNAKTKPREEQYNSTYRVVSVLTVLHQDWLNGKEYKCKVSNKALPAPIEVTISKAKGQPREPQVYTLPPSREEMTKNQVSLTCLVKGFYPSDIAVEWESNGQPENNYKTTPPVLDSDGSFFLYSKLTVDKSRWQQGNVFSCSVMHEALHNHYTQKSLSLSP
light: B1 light
notes: as for B1
As to B5, the Kd was determined as 2800 nM in assay [1]; 110 nM in [2]; 2300 nM in assay [3]; 1900 nM in assay [4]; 1300 nM in [5]; 230 nM in [6]. Besides, the Kd in assay [7] came to 520 nM; in [8], 510 nM. In assay [9], the “KD fold (SG1 = 1)” value was determined as 2.4 fold.

B6: M103205H795-MY068/M103202L889-SK1 (antibody, human IgG1, kappa)
heavy: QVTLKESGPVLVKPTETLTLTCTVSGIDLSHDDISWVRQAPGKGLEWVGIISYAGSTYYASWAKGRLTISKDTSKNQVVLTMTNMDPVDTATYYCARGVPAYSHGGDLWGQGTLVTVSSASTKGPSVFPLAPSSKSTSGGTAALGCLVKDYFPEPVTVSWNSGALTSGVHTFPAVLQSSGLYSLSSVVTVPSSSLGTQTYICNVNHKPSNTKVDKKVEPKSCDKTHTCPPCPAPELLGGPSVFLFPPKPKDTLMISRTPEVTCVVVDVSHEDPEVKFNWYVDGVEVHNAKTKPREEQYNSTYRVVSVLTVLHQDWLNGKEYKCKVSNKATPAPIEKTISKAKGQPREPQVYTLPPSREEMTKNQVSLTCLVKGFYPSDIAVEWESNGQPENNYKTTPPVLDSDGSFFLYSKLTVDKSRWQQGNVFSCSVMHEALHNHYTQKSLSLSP
light: B1 light
notes: as for B1
With B6, the Kd was 2700 nM in assay [1]; 580 nM in assay [2]; 2100 nM in assay [3]; 2100 nM in [4]; 1000 nM in assay [5]; 1400 nM in [6]. The dissociation constant Kd came out at 370 nM in assay [7] and 520 nM in assay [8]. Moreover, the “KD fold (SG1 = 1)” value in assay [9] is 2.7 fold.

B7: M103205H795-MY124/M103202L889-SK1 (antibody, human IgG1, kappa)
heavy: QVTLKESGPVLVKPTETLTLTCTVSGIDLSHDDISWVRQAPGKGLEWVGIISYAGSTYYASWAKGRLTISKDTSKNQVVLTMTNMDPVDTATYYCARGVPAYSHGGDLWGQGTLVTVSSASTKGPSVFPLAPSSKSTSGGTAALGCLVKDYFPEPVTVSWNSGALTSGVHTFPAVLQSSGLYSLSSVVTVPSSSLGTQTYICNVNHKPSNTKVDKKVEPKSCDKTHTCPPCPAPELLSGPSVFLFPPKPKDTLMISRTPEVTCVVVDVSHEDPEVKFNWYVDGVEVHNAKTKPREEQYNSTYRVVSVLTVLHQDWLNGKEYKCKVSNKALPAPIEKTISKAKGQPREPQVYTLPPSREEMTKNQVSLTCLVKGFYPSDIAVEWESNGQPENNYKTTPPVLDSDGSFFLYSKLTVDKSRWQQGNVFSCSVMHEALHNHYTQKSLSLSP
light: B1 light
notes: as for B1
On to B7, for which the Kd in [1] stood at 3100 nM; in [2], 1300 nM; in assay [3], 2600 nM; in assay [4] it was 9200 nM; in assay [5] it was 2200 nM; in [6], 5200 nM. Besides, the dissociation constant Kd in [7] was 140 nM; in assay [8] it was 520 nM. In assay [9], the “KD fold (SG1 = 1)” value stood at 0.5 fold.

B8: M103205H795-MY064/M103202L889-SK1 (antibody, human IgG1, kappa)
heavy: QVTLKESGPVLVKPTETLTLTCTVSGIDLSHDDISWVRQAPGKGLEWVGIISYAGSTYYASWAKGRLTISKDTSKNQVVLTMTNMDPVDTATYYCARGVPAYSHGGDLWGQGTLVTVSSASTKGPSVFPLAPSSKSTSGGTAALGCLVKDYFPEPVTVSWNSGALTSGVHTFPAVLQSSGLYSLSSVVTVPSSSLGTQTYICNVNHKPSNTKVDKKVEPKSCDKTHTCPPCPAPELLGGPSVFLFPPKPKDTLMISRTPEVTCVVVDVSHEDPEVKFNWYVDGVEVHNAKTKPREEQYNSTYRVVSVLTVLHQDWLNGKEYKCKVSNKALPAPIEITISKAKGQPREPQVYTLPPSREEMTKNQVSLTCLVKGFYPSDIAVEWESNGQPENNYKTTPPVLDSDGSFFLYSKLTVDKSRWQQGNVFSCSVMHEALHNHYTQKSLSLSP
light: B1 light
notes: as for B1
With B8, the Kd is 2800 nM in assay [1]; 120 nM in [2]; 2400 nM in assay [3]; 2400 nM in assay [4]; 1100 nM in assay [5]; 220 nM in [6]. Besides, the Kd worked out at 500 nM in assay [7] and 680 nM in assay [8]. For the same molecule, the “KD fold (SG1 = 1)” value in assay [9] amounted to 1.9 fold.

B9: M103205H795-MY072/M103202L889-SK1 (antibody, human IgG1, kappa)
heavy: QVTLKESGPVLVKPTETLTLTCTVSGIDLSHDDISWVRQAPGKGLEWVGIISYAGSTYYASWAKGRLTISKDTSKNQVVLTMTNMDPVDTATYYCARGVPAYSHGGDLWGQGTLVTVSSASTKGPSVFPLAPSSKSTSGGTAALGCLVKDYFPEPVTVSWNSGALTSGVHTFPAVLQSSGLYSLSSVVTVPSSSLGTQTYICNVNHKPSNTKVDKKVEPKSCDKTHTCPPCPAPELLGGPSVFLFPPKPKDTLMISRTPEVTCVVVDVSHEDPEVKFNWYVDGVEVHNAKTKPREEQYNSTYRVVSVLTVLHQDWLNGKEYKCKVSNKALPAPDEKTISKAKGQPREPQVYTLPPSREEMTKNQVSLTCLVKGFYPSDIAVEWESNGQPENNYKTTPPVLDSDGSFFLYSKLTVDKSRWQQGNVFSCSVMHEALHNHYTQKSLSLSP
light: B1 light
notes: as for B1
As for B9, the Kd in [1] was 1200 nM; in assay [2] it was 53 nM; in assay [3], 1000 nM; in assay [4], 1500 nM; in [5], 480 nM; in assay [6], 120 nM. Besides, the Kd in assay [7] was 250 nM; in assay [8] it was 480 nM. The “KD fold (SG1 = 1)” value in assay [9] turned out to be 3.1 fold.

B10: M103205H795-MY070/M103202L889-SK1 (antibody, human IgG1, kappa)
heavy: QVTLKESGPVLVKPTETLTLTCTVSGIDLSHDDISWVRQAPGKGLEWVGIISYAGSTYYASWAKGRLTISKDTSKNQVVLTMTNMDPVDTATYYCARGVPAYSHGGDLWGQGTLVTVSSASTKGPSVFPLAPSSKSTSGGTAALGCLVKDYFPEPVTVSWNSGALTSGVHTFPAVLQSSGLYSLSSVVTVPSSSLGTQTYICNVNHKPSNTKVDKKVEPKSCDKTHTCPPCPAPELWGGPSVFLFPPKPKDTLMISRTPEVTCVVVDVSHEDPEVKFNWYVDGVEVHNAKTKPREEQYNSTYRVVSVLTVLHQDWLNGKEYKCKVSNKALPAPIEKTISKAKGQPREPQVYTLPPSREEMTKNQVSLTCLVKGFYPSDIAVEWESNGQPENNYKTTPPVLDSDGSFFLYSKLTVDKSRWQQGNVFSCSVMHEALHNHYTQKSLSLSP
light: B1 light
notes: as for B1
As to B10, the Kd in assay [1] came out at 2500 nM; in assay [2] it was 490 nM; in [3] it was 2300 nM; in assay [4], 2600 nM; in assay [5], 1200 nM; in assay [6] it was 700 nM. Also, the Kd in assay [7] amounted to 500 nM; in assay [8] it was 740 nM. For the same molecule, the “KD fold (SG1 = 1)” value in [9] is 1.8 fold.

B11: M103205H795-MY069/M103202L889-SK1 (antibody, human IgG1, kappa)
heavy: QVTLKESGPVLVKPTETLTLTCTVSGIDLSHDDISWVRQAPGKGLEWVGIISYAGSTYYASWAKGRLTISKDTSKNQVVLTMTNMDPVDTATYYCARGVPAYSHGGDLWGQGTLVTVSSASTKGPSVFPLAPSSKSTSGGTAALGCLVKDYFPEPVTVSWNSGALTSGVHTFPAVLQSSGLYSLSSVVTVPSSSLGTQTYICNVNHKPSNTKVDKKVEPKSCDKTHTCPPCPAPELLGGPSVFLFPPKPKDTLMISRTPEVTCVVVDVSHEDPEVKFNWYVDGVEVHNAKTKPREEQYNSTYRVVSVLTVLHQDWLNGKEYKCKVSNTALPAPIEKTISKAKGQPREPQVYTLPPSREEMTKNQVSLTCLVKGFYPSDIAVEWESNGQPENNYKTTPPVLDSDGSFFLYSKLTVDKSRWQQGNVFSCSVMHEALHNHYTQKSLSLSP
light: B1 light
notes: as for B1
In the case of B11, the Kd in [1] is 1600 nM; in assay [2] it was 86 nM; in assay [3], 1600 nM; in [4], 1600 nM; in assay [5] it was 730 nM; in assay [6] it was 240 nM. In addition, the Kd was found to be 440 nM in assay [7] and 390 nM in [8]. Moreover, in [9], the “KD fold (SG1 = 1)” value stood at 2.9 fold.
